Data on 16 molecules can be found in patent publication US20260098059A1 (ENDOMET BIOSCIENCES, published 2026).

“And” between values parts separate entries of the source, which are not always exact repeats. Equal entries are not always repeated. Bridges are numbered along the chain shown (N, C = ends). [ ]: non-standard residue; d: D form. The star is where a group is joined. Chg = N[C@H](C(=O)O)C1CCCCC1; Lauroyl = CCCCCCCCCCCC(=O)*; NMeA = CN[C@@H](C)C(=O)O

The target of assay [1] is T1, β-catenin (UniProt P35222 134-665, limits assumed, biotinylated in the SPR and plate assays).
T1 sequence (looked up): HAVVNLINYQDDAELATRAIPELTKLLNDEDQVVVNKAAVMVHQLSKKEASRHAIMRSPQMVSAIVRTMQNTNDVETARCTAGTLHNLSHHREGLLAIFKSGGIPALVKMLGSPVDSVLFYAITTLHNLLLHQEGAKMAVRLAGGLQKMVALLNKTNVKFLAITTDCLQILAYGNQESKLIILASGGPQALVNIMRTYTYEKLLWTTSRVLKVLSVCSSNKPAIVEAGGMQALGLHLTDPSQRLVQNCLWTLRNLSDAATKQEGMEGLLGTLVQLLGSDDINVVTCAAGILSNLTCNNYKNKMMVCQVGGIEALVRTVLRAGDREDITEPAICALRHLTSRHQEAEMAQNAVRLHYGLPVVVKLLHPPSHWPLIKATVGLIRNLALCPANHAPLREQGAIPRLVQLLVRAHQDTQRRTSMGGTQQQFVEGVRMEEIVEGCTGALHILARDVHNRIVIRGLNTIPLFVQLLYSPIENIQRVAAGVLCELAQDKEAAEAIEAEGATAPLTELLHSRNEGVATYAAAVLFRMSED
Put plainly: cell-based or functional assay.

The target of assay [2] is T1, β-catenin. Nature of the assay: SPR (Biacore). As for the experimental part:
Biotinylated protein (beta catenin) was immobilized on a high-affinity streptavidin (SA) sensor chip (GE). Peptide at increasing concentrations was flowed over in HBS EP+ buffer at room temperature according to manufacturer's instructions. The maximum binding capacity of the surface (response at saturation) was calculated using the Biacore® system (GE) instructions and binding was measured at each concentration as a data point. The binding levels were determined over a range of analyte concentrations of at least from 20% to 80% saturation of the surface. On rates, off rates, and KD were calculated using Biacore® Insight Evaluation Software software (GE).
A general note: Surface plasmon resonance follows binding to a sensor surface in real time, without labels.

Assay [3] concerns the target T1, β-catenin. Nature of the assay: competitive FP. The gist of the method:
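Competitive fluorescence polarization with inhibitor peptide serially diluted from 10 nM to 30 uM; polarization read at 470 nm excitation, 520 nm emission. Experiments performed three times.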

B1: SEQ ID NO: 25 (peptide)
peptide: KMSRMWLLISFWG
HELM: PEPTIDE1{K.M.S.R.M.W.L.L.I.S.F.W.G}$PEPTIDE1,PEPTIDE1,1:R3-13:R2$$$V2.0
SMILES: CC[C@H](C)[C@@H]1NC(=O)[C@H](CC(C)C)NC(=O)[C@H](CC(C)C)NC(=O)[C@H](Cc2c[nH]c3ccccc23)NC(=O)[C@H](CCSC)NC(=O)[C@H](CCCNC(=N)N)NC(=O)[C@H](CO)NC(=O)[C@H](CCSC)NC(=O)[C@@H](N)CCCCNC(=O)CNC(=O)[C@H](Cc2c[nH]c3ccccc23)NC(=O)[C@H](Cc2ccccc2)NC(=O)[C@H](CO)NC1=O
As to B1, in the assay with β-catenin [1], the “Wnt Reporter EC50” value is > 7.5 µM and ≤ 15 µM. In the assay with β-catenin [2], the Kd (commonly a measure of binding affinity in units of concentration) is 0.112 µM.

B2: SEQ ID NO: 27 (peptide)
peptide: KMSRMWYLISFWG
HELM: PEPTIDE1{K.M.S.R.M.W.Y.L.I.S.F.W.G}$PEPTIDE1,PEPTIDE1,1:R3-13:R2$$$V2.0
SMILES: CC[C@H](C)[C@@H]1NC(=O)[C@H](CC(C)C)NC(=O)[C@H](Cc2ccc(O)cc2)NC(=O)[C@H](Cc2c[nH]c3ccccc23)NC(=O)[C@H](CCSC)NC(=O)[C@H](CCCNC(=N)N)NC(=O)[C@H](CO)NC(=O)[C@H](CCSC)NC(=O)[C@@H](N)CCCCNC(=O)CNC(=O)[C@H](Cc2c[nH]c3ccccc23)NC(=O)[C@H](Cc2ccccc2)NC(=O)[C@H](CO)NC1=O
Regarding B2, the “Wnt Reporter EC50” value with β-catenin [1] is over 30 µM. In addition, in the assay with β-catenin [2], the Kd is 0.515 µM.

B3: SEQ ID NO: 30 (peptide)
peptide: KMAESILDEHVQRVWG
HELM: PEPTIDE1{K.M.[meA].E.S.I.L.D.E.H.V.Q.R.V.W.G}$PEPTIDE1,PEPTIDE1,1:R3-16:R2$$$V2.0
SMILES: CC[C@H](C)[C@@H]1NC(=O)[C@H](CO)NC(=O)[C@H](CCC(=O)O)NC(=O)[C@H](C)N(C)C(=O)[C@H](CCSC)NC(=O)[C@@H](N)CCCCNC(=O)CNC(=O)[C@H](Cc2c[nH]c3ccccc23)NC(=O)[C@H](C(C)C)NC(=O)[C@H](CCCNC(=N)N)NC(=O)[C@H](CCC(N)=O)NC(=O)[C@H](C(C)C)NC(=O)[C@H](Cc2c[nH]cn2)NC(=O)[C@H](CCC(=O)O)NC(=O)[C@H](CC(=O)O)NC(=O)[C@H](CC(C)C)NC1=O
As for B3, in the assay with β-catenin [1], the “Wnt Reporter EC50” value is over 30 µM. For the same molecule, in the assay with β-catenin [2], binding was put at a Kd of 0.123 µM.

Take H-MWESILDEHMQRVWRG-OH [SEQ ID NO: 23]: the Kd with β-catenin [3] was at most 0.4 µM; with β-catenin [2], 1.59 µM. In the assay with β-catenin [1], the “Wnt Reporter EC50” value is over 30 µM.

Regarding H-MIRMWFLISFWG-OH [SEQ ID NO: 15], the “Wnt Reporter EC50” value in the assay with β-catenin [1] was at most 7.5 µM. In the assay with β-catenin [2], this molecule came in with a Kd of 0.13 µM.

Take H-MWESILDEHVQRVWG-OH [SEQ ID NO: 22]: the “Wnt Reporter EC50” value in the assay with β-catenin [1] is over 30 µM. Binding in the assay with β-catenin [2] was characterised by a dissociation constant (Kd) of 1.37 µM.

B4: SEQ ID NO: 1 (peptide)
peptide: GWWESILDEHVQRVWG
HELM: PEPTIDE1{[CCCCCCCCCCCCCC(=O)[*:2]].G.W.[meW].E.S.I.L.D.E.H.V.Q.R.V.W.G}$$$$V2.0
SMILES: CCCCCCCCCCCCCC(=O)NCC(=O)N[C@@H](Cc1c[nH]c2ccccc12)C(=O)N(C)[C@@H](Cc1c[nH]c2ccccc12)C(=O)N[C@@H](CCC(=O)O)C(=O)N[C@@H](CO)C(=O)N[C@H](C(=O)N[C@@H](CC(C)C)C(=O)N[C@@H](CC(=O)O)C(=O)N[C@@H](CCC(=O)O)C(=O)N[C@@H](Cc1c[nH]cn1)C(=O)N[C@H](C(=O)N[C@@H](CCC(N)=O)C(=O)N[C@@H](CCCNC(=N)N)C(=O)N[C@H](C(=O)N[C@@H](Cc1c[nH]c2ccccc12)C(=O)NCC(=O)O)C(C)C)C(C)C)[C@@H](C)CC
The molecule B4 yielded a Kd with β-catenin [3] of at most 0.4 µM. In the assay with β-catenin [1], the “Proliferation IC50, Wnt dependent cells” value stood at 18.5 µM.

B5: SEQ ID NO: 28 (peptide)
peptide: KMSRMWFLISLWG
HELM: PEPTIDE1{K.M.S.R.M.W.F.L.I.S.L.W.G}$PEPTIDE1,PEPTIDE1,1:R3-13:R2$$$V2.0
SMILES: CC[C@H](C)[C@@H]1NC(=O)[C@H](CC(C)C)NC(=O)[C@H](Cc2ccccc2)NC(=O)[C@H](Cc2c[nH]c3ccccc23)NC(=O)[C@H](CCSC)NC(=O)[C@H](CCCNC(=N)N)NC(=O)[C@H](CO)NC(=O)[C@H](CCSC)NC(=O)[C@@H](N)CCCCNC(=O)CNC(=O)[C@H](Cc2c[nH]c3ccccc23)NC(=O)[C@H](CC(C)C)NC(=O)[C@H](CO)NC1=O
For B5, the “Wnt Reporter EC50” value with β-catenin [1] is > 22.5 µM and ≤ 30 µM. The Kd with β-catenin [2] worked out at 0.803 µM.

The molecule WPQSILDEHGQKVW (not fully specified; Lauroyl-NH-WPQSILDE*H-Chg-QK*VW-NH2) [SEQ ID NO: 469] came in with a Kd with β-catenin [3] of at most 0.4 µM. In the assay with β-catenin [1], the “Wnt Reporter EC50” value is at most 7.5 µM.

B6: SEQ ID NO: 467 (peptide)
peptide: Lauroyl-W[NMeA]QSILDEH[Chg]QKVW-NH2
modifications: lactam 8-12; not fully specified; printed as Lauroyl-NH-W-NMeA-QSILDE*H-Chg-QK*VW-NH2
In the assay with β-catenin [3], B6 displayed a dissociation constant (Kd) of at most 0.4 µM. Also, the “Wnt Reporter EC50” value in the assay with β-catenin [1] was at most 7.5 µM.

On to H-MWFLISFWG-OH [SEQ ID NO: 17], for which the Kd was > 0.4 µM and ≤ 1 µM with β-catenin [3]; 0.314 µM with β-catenin [2]. Besides, the “Wnt Reporter EC50” value in the assay with β-catenin [1] was at most 7.5 µM.

B7: SEQ ID NO: 266 (H2N-Tcf4(7-51)-K-CONH2) (peptide)
peptide: H-GGGDDLGANDELISFKDEGEQEEKSSENSSAERDLADVKSSLVNEK-NH2
notes: Tcf4 residues 7-51 with an added C-terminal K, amidated
For B7, the Kd in the assay with β-catenin [3] is at most 0.4 µM; in the assay with β-catenin [2], 0.0582 µM.

B8: SEQ ID NO: 471 (peptide)
peptide: Lauroyl-W[NMeA]QSILDEH[Chg]QKVWG-NH2
modifications: lactam 8-12; not fully specified; printed as Lauroyl-NH-W-NMeA-QSILDE*H-Chg-QK*VWG-NH2
In turn, B8 returned a Kd in the assay with β-catenin [3] of at most 0.4 µM. In the assay with β-catenin [1], the “Wnt Reporter EC50” value was at most 7.5 µM.

B9: SEQ ID NO: 45 (peptide)
peptide: MWFLISFWAG
HELM: PEPTIDE1{M.W.F.L.I.S.F.W.[meA].G}$$$$V2.0
SMILES: CC[C@H](C)[C@H](NC(=O)[C@H](CC(C)C)NC(=O)[C@H](Cc1ccccc1)NC(=O)[C@H](Cc1c[nH]c2ccccc12)NC(=O)[C@@H](N)CCSC)C(=O)N[C@@H](CO)C(=O)N[C@@H](Cc1ccccc1)C(=O)N[C@@H](Cc1c[nH]c2ccccc12)C(=O)N(C)[C@@H](C)C(=O)NCC(=O)O
In the case of B9, the dissociation constant Kd in the assay with β-catenin [3] was > 0.4 µM and ≤ 1 µM. Further, in the assay with β-catenin [1], the “Wnt Reporter EC50” value was at most 7.5 µM.

Turning to H-MWFLISFWEG-OH [SEQ ID NO: 47], the Kd with β-catenin [3] is > 0.4 µM and ≤ 1 µM. For the same molecule, the “Wnt Reporter EC50” value with β-catenin [1] is at most 7.5 µM.

B10: SEQ ID NO: 26 (peptide)
peptide: KMWFLISFWG
HELM: PEPTIDE1{K.M.W.F.L.I.S.F.W.G}$PEPTIDE1,PEPTIDE1,1:R3-10:R2$$$V2.0
SMILES: CC[C@H](C)[C@@H]1NC(=O)[C@H](CC(C)C)NC(=O)[C@H](Cc2ccccc2)NC(=O)[C@H](Cc2c[nH]c3ccccc23)NC(=O)[C@H](CCSC)NC(=O)[C@@H](N)CCCCNC(=O)CNC(=O)[C@H](Cc2c[nH]c3ccccc23)NC(=O)[C@H](Cc2ccccc2)NC(=O)[C@H](CO)NC1=O
Consider B10, for which the “Wnt Reporter EC50” value in the assay with β-catenin [1] is > 7.5 µM and ≤ 15 µM. Further, in the assay with β-catenin [2], binding was put at a Kd of 0.11 µM.
